Test results reported in PMC10901769, “An anti-CRISPR that represses its own transcription while blocking Cas9-target DNA binding”.

What was measured:
AcrIIA15 CTD = biological target: T1, AcrIIA15 CTD (UniProt PDB:8JFT_3 1-114); experiment: EMSA; Promoter EMSA: 20 mM Tris-HCl pH 7.5, 300 mM NaCl, on ice/4 C, 30 min; SaCas9 EMSA: 20 mM Tris pH 7.5, 200 mM NaCl, 10 mM EDTA, RT; SPR: 10 mM Na2HPO4, 2 mM KH2PO4, 0.3 M NaCl; SEC: 20 mM Tris pH 7.5, 300 mM NaCl; conditions: protein: recombinant; tags: C-His6 or His6-Sumo (removed); blunt
T1 sequence: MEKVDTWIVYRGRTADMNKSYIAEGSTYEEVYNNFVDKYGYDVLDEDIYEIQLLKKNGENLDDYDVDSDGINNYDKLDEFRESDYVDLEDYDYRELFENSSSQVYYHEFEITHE

AcrIIA15 full-length [1] = biological target: T2, AcrIIA15 full-length (UniProt PDB:8JG9_3 1-171); experiment: as above; conditions: protein: recombinant; tags: C-terminal His6, or His6-Sumo removed by Ulp1; chain copies: 2; blunt
T2 sequence: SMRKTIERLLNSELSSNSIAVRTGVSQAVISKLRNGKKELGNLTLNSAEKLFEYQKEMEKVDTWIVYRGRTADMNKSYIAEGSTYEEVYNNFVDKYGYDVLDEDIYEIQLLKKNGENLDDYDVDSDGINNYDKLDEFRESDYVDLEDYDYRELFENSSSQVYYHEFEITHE

AcrIIA15 NTD = biological target: T3, AcrIIA15 NTD (UniProt PDB:8JFR_1 1-63); experiment: as above; conditions: protein: recombinant; tags: C-His6 or His6-Sumo (removed); chain copies: 2; blunt
T3 sequence: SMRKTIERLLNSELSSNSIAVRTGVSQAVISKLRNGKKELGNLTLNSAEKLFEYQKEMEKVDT

AcrIIA15 full-length [2] = biological target: T2, AcrIIA15 full-length; experiment: SEC; no stable binding; Promoter EMSA: 20 mM Tris-HCl pH 7.5, 300 mM NaCl, on ice/4 C, 30 min; SaCas9 EMSA: 20 mM Tris pH 7.5, 200 mM NaCl, 10 mM EDTA, RT; SPR: 10 mM Na2HPO4, 2 mM KH2PO4, 0.3 M NaCl; SEC: 20 mM Tris pH 7.5, 300 mM NaCl; conditions: protein: recombinant; tags: C-terminal His6, or His6-Sumo removed by Ulp1; chain copies: 2; blunt
SaCas9;AcrIIA15 CTD = biological target: T4, SaCas9;AcrIIA15 CTD (Staphylococcus aureus;, UniProt J7RUA5;PDB:8JFT_3 1-1053;1-114, |); experiment: cryo-EM; Promoter EMSA: 20 mM Tris-HCl pH 7.5, 300 mM NaCl, on ice/4 C, 30 min; SaCas9 EMSA: 20 mM Tris pH 7.5, 200 mM NaCl, 10 mM EDTA, RT; SPR: 10 mM Na2HPO4, 2 mM KH2PO4, 0.3 M NaCl; SEC: 20 mM Tris pH 7.5, 300 mM NaCl; conditions: protein: recombinant;recombinant; tags: His6-Sumo removed by Ulp1;C-His6 or His6-Sumo (removed); copies: 1;1; hairpin
T4 sequence 1: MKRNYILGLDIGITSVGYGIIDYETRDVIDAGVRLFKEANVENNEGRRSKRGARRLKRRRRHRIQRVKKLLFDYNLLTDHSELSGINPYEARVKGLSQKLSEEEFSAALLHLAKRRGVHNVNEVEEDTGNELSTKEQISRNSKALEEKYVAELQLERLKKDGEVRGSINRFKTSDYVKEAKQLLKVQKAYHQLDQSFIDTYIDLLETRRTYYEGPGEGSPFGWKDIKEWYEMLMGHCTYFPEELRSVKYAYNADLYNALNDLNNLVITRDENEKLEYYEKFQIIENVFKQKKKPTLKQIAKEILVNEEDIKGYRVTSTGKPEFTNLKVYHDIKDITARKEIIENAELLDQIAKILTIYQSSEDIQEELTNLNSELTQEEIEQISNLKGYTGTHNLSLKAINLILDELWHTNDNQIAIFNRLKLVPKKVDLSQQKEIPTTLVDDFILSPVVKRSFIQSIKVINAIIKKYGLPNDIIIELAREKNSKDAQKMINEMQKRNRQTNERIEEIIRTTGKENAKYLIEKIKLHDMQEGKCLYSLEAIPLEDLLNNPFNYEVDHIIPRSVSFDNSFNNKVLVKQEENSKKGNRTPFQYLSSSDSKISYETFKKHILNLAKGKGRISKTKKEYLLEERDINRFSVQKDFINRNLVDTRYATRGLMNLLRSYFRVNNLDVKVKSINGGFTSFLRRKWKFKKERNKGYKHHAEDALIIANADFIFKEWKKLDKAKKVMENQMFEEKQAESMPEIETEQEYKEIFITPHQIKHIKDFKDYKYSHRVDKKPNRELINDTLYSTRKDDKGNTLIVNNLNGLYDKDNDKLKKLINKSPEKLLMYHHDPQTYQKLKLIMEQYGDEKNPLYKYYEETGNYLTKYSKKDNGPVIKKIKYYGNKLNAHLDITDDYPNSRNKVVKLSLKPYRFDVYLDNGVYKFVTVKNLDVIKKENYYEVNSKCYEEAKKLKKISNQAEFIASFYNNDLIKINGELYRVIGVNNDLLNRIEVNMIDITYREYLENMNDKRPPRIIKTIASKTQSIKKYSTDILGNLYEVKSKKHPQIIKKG
T4 sequence 2: T1 sequence

[3] = biological target: T5, SaCas9;AcrIIA15 full-length (Staphylococcus aureus;, UniProt J7RUA5;PDB:8JG9_3 1-1053;1-171, |); experiment: cryo-EM; with IR1 DNA; Promoter EMSA: 20 mM Tris-HCl pH 7.5, 300 mM NaCl, on ice/4 C, 30 min; SaCas9 EMSA: 20 mM Tris pH 7.5, 200 mM NaCl, 10 mM EDTA, RT; SPR: 10 mM Na2HPO4, 2 mM KH2PO4, 0.3 M NaCl; SEC: 20 mM Tris pH 7.5, 300 mM NaCl; conditions: protein: recombinant;recombinant; tags: His6-Sumo removed by Ulp1;C-terminal His6, or His6-Sumo removed by Ulp1; chain copies: 2;2; hairpin
T5 sequence 1: T4 sequence 1
T5 sequence 2: T2 sequence

B1: IR1-IR2 (dsDNA)
DNA 1: ATAATTATGACAAATGTCATAGAAAAGCGTTGACTTATGACGAACGTCATAATATA
DNA 2: TATATTATGACGTTCGTCATAAGTCAACGCTTTTCTATGACATTTGTCATAATTAT
B1: no binding (AcrIIA15 CTD); binds (AcrIIA15 full-length [1]); binds (AcrIIA15 NTD).

B2: IR1' (dsDNA)
DNA 1: TTATGACAAATGTCATAG
DNA 2: CTATGACATTTGTCATAA
B2: no binding (AcrIIA15 full-length [2]).

B3: SaCas9 sgRNA (structured_RNA)
RNA: GGUCUGCUAUUUCUAUUUACGUUUUAGUACUCUGGAAACAGAAUCUACUAAAACAAGGCAAAAUGCCGUGUUUAUCUCGUCAACUUGUUGGCGAGAUC
B3: binds (SaCas9;AcrIIA15 CTD); binds [3].
